In patent US20170002068A1 (YEDA RESEARCH AND DEVELOPMENT, published 2017):

B2: human amphiregulin (ligand, UniProt P15514 101-198, looked up)
chain: SVRVEQVVKPPQNKTESENTSDKPKRKKKGGKNGKNRRNRKKKNPCNAEFQNFCIHGECKYIEHLEAVTCKCQQEYFGERCGEKSMKTHSMIDSSLSK
notes: also called AREG; hAREG

Legend:
murine amphiregulin [1] = target: T1, murine amphiregulin (mouse, UniProt P31955 94-191, limits assumed); assay: ELISA, wells coated with 400 ng/mL ligand, mAb 2 h, anti-mouse-HRP, ABTS, 415 nm (legend; the y axis has no title)
T1 construct: also called mAREG; murine AREG
T1 sequence (looked up): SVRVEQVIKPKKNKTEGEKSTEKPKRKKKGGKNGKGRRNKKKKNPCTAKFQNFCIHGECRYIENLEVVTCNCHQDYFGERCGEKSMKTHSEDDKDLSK
Description: (§1) Thereafter, wells were incubated for two hours with an anti-mouse antibody conjugated to HRP, followed by a 30 minute incubation with ATBS. Signals were determined using an ELISA reader (set at 415 nm). […] Thereafter, wells were incubated for two hours with an anti-mouse antibody conjugated to HRP, followed by a 30-min incubation with ATBS. Signals were determined using an ELISA reader (set at 415 nm). […] Thereafter, wells were incubated for two hours with an anti-mouse antibody conjugated to HRP, followed by a 20-min incubation with ATBS. Signals were determined using an ELISA reader (set at 420 nm).

[2] = target: T2, human heparin-binding EGF-like growth factor (human, UniProt Q99075 63-148); assay: as above
T2 construct: also called hHB-EGF; HB-EGF
Description: as §1

human amphiregulin [3] = target: B2; assay: ELISA, wells coated with human AREG at 0, 10, 50, 100, 500 ng/mL, antibody 2 h, anti-mouse-HRP, ABTS, absorbance 415 nm
Description: Thereafter, wells were incubated for two hours with an anti-mouse antibody conjugated to HRP, followed by a 30 minute incubation with ATBS. Signals were determined using an ELISA reader (set at 415 nm).

[4] = target: T3, human epidermal growth factor (human, UniProt P01133 971-1023); assay: ELISA, wells coated with ligand at 400, 200, 100, 50, 25 and 10 ng/mL, mAb 1 µg/mL 2 h, anti-mouse-HRP, ABTS; absorbance 415 nm on the sheet
T3 construct: also called hEGF; EGF
Description: as §1

[5] = target: T4, Epidermal Growth Factor Receptor (human, UniProt P00533 25-1210); assay: cell-based or functional assay
[6] = target: T4, Epidermal Growth Factor Receptor; assay: displacement of 125I-EGF (50 ng/mL) by unlabeled ligand on MCAS ovarian cancer cells, on ice
Description: (§2) The cells were later washed and lysed, and the associated radioactivity was determined. […] The cells were later washed and lysed in 1 N NaOH. Cell-associated radioactivity was determined. […] Washed immunocomplexes, along with whole extracts, were immunoblotted with the indicated antibodies.

[7] = target: T4, Epidermal Growth Factor Receptor; assay: displacement of 125I-EGF (50 ng/mL) from MCAS ovarian cancer cells by unlabeled ligand, 3 h on ice, cell-associated radioactivity
Description: as §2

human epigen = target: T5, human epigen (human, UniProt Q6UW88 24-104, limits assumed); assay: SPR (BIAcore 3000), ligand in solution over AR30-coated surface
T5 construct: also called hEPG; EPG
Description: (§3) SPR was performed on a BIAcore 3000 instrument (BIAcore, Uppsala, Sweden). Proteins were diluted in 100 mM Na-acetate (pH 4.6) to 20 μg/ml and immobilized on a CM5 sensor chip using a standard protocol of amine coupling. The protein solution was flown over the chip for 5 minutes at a rate of 20 μl/min. […] The net signal was obtained by subtracting the blank signal (plain dextran matrix) from the signal recorded from the immobilized surface. The association phase for analyte binding to all ligands was followed for 4 minutes, and dissociation phases were monitored for 3 minutes. Surface regeneration between consecutive binding cycles included a 1 min injection of 2 mM NaOH. The response was monitored as a function of time (sensorgram). Multi-concentration data underwent fitting using the software BIAevaluation 3.2.

murine amphiregulin [8] = target: T1, murine amphiregulin; assay: as above
Description: as §3

[9] = target: T6, murine heparin-binding EGF-like growth factor (mouse, UniProt Q06186 63-148, limits assumed); assay: as above
T6 construct: also called mHB-EGF
T6 sequence (looked up): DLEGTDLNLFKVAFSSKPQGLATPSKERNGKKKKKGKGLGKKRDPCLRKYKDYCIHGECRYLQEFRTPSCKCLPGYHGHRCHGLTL
Description: as §3

human amphiregulin [10] = target: B2; assay: as above
Description: as §3

[11] = target: T2, human heparin-binding EGF-like growth …; assay: as above
Description: as §3

[12] = target: T7, human transforming growth factor alpha (human, UniProt P01135 40-89); assay: as above
T7 construct: also called hTGF-alpha; TGF-alpha
Description: as §3

[13] = target: T3, human epidermal growth factor; assay: as above
Description: as §3

human betacellulin = target: T8, human betacellulin (human, UniProt P35070 32-111); assay: as above
T8 construct: also called hBTC; BTC
T8 sequence (looked up): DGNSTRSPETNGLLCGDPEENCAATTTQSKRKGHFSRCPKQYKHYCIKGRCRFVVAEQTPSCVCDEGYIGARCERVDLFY
Description: as §3

human neuregulin 1 = target: T9, human neuregulin 1 (human, UniProt Q02297-6 177-241, limits assumed); assay: as above
T9 construct: also called hNRG1; NRG1
T9 sequence (looked up): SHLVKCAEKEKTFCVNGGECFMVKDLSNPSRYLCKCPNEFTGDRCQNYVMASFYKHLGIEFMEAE
Description: as §3

T2 sequence (Q99075 63-148 limits assumed): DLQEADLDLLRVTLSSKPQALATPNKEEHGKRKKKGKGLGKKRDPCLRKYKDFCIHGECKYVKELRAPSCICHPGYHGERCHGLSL
T3 sequence (P01133 971-1023 limits assumed): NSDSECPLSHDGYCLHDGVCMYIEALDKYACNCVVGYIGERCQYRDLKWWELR
T5 sequence (Q6UW88 24-104 limits assumed): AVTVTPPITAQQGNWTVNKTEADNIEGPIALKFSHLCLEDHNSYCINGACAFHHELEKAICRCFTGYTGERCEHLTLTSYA

B1: AR558, anti-AREG monoclonal antibody (antibody, V domains shown)
VH: EVQLQQSGAELVKPGASVKLSCTASGFNIKDTYMHWVKQRPEQGLEWIGRIDPANRSTKYDPKFQGKATITADTSSNTADLHLSSLTSEDTAVYYCARLYGDSVWYFDVWGAGTTVTVSS
VL: QIVLTQSPAILSASPGEKVTMTCRAGSSVNYIHWYQQKPGSSPKPWIYATSNLASGVPARFSGSGSGTSYSLTISRVEAEDAATYYCQQWSGYPPMLTFGAGTKLELKR
notes: Mouse hybridoma mAb generated in AREG knockout mice; they may cover only the variable regions; also called mAb AR558
Murine amphiregulin [1]
  binding result: no binding (tested: 400 ng/mL coated ligand)
[2]
  binding result: no binding (tested: 400 ng/mL coated ligand)
Human amphiregulin [3]
  binding result: binds
[4]
  binding result: no binding (tested: 400 ng/mL coated ligand, mAb 1 µg/mL)

## B2
[5]
  endocytosis-mediated downregulation of EGFR (MCAS cells, 125I-EGF binding after stimulation): ~30%
[6]
  fold lower binding affinity compared to EGF: ~100 fold
[7]
  IC50 (read off the curve): ~100 ng/mL

B3: AR30, anti-AREG monoclonal antibody (antibody, V domains shown)
VH: EVQLQQSGAELVRSGASVKLSCTASGFNIKDSYMHWVKQRPEQGLEWIGWVDPDNGDTEYAPEFQGRATLTADTFSSTAYLQLTSLTSEDTAVYYCNAPSTYGHYGFAYWGQGTLVTVSA
VL: DIVMTQAAPSVPVTPGESVSISCRSSKSLLHSNGKAYLYWFLQRPGQSPQLLIYRMSNLASGVPDRFSGSGSGTAFTLRISRVEAEDVGVYYCMQHLEYPLTFGAGTKLELKR
notes: Mouse hybridoma mAb raised against TRX-fused EGF-like domain of human AREG; they may cover only the variable regions; also called mAb AR30; AR30 mAb
Human epigen
  Kd: > 10 µM
Murine amphiregulin [8]
  Kd: > 10 µM
[9]
  Kd: 6.65 µM
Human amphiregulin [10]
  Kd: 1.7 nM
[11]
  Kd: 80 nM
[12]
  Kd: > 10 µM
[13]
  Kd: > 10 µM
Human betacellulin
  Kd: > 10 µM
Human neuregulin 1
  Kd: > 10 µM
